Measurements: publication PMC4552884

Target: PfHsp90 (Plasmodium falciparum (endogenous in strain 3D7)) (UniProt Q8IC05)

Substance: precursor PfHsp60 (natural protein)
- decrease in signal of the precursor PfHsp60 spot in the PfHsp60 immunoprecipitate of 35S-labelled parasites treated with 5 uM Geldanamycin against DMSO (2DGE, phosphorimaging): 80%
